# Test results as given in the nanobody polyreactivity screen of Harvey et al. (2022).
# Assay: yeast display, Sf9 membrane polyspecificity reagent, FACS + sequencing; frameworks hold sequencing errors
# Procedure, shortened: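 After 36–48 hours of galactose induction, yeast (Saccharomyces cerevisiae BJ5465) displaying a synthetic nanobody library were stained at 4 °C for 1 hour with 10% biotinylated, detergent-solubilized Sf9 membrane reagent. Streptavidin microbeads enriched the stained cells before FACS sorting into low and high (top ~1%) gates on anti-HA and streptavidin fluorescence. Each clone's polyreactivity label reflects its gate of origin.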
row,Sequence,polyreactivity (PSR sort gate)
1,QVQVVESGGGLVQAGGSLRLSCAASGFIFNTHAMGWYRQAPGKERELVAAITWTGDSTYYADSVKGRFTISRDYAKNTVYLQMNSLKPEDTAVYYCNAATGDWETSIWTYPFWAEMYYWGQGTQVNVSS,low polyreactivity
2,QVQVVESGGGLVQAGGSLRLSCAASGFIFRYYAMGWYRQAPGKEREFVAAISTSAGSTYYADSVKGRFTISRDNAKNTVYLQMNSLKPEDTAVSYCAAEYWRRASYNYWGQGTQVTVSS,high polyreactivity
3,QVQVVESGGGLVQAGGSLRLSCAASGFTYGNNGMGWYRQAPGKERELVATISWSGGSTYADSVKGRFTISRDNAKNTVYLQMNSLKPEDTAVYYCAARYFVYYQEVDYWGQGTQVTVSS,low polyreactivity
4,QVQVVESGGGLVQAGGSLRLSCAASGLTYSYYTMGWYRQAPGKERELVAAITSSSGRTYYADSVKGRITISRDNAKNTVYLQMNSLKPEDTAVYYCAARWSPYDYWGQGTQVTVSS,low polyreactivity
5,QVQVVESGGGLVQAGGSLRLSCAASGRIFANNAMGWYRQAPGKERELVAAITASSGSTYYADSVKGRFTISRDNAKNTVYFQMNSLKPEDTAFYYCAATLRWGFRWYFGFDYWGQGTQVTVSS,high polyreactivity
6,QVQVVESGGGLVQAGGSLRLSCAASGRIFPYYTMGWYRQAPGKERDLVAAISRRGSSTYYADSVKGRFTISRDNAKNTVYLQMNSLKPEDTAVYYCAADRGGYTRTGEYDYWGQCTQVTVSS,high polyreactivity
7,QVQVVESGGGLVQAGGSLRLSCAASGSIFKFNAMGWYRQAPGKERELVAAISYSGGNTDYADSVKGRFTISRDNAKNTVYLQMNSLKPEDTAVYYCAATSYLVLTLEYDYWGQGTQVTVSS,low polyreactivity
8,QVQVVESGGGLVQAGGSLRLSCAASGSIFSYNAMGWYRQAPGKERELVATITWSAGSTYYADSVKGRFTISRDNAKNPVYLQMNSLKPEDTAVYYCAKRARESSSVSRVNYWFDYWGQGTQVTVSS,low polyreactivity
9,QVQVVESGGGLVQAGGSLRLSCAASGSIFTYYAMGWYRQAPGKERELVAAINWSGASTYYADSVKGRFTISRDNAKNTVYLQMNSLKPEDTAVYYCAGYGYWGQGTQVTVSS,high polyreactivity
10,QVQVVESGGGLVQAGGSLRLSCAASGSSFGVNAMGRYTQAPGKERELVASITWSGDNTYYADSVKGRFTISRDNAKNTVYLQMNSLKPEDTAVYYCAATIWIAYRGWYSDYNYWGQGTQVTVSS,low polyreactivity
11,QVQVVESGGGLVQAGGSLRLSCAASGSTCYFNAMGWYRQAPGTERELVAAIEWSGGSTYYADSVKGRFTISRDNAKNTVYLQMTSLKPEDTAVYYCNRRDVIFLTGPPQYIFPTYDYWGQGTQVTVSS,low polyreactivity
12,QVQVVESGGGLVQAGGTLRLSCAASGFILPHYTMGWYRQAPAKERELVAAITSGVSTYYADSVKGRFTISRDNAKNTVYLQMNSLKTEDTAVYYCNALATYIGYKYDYWGQGTQVTVSS,low polyreactivity
13,QVQVVESGGGLVQEGGSHRISCAASGRIFFTNAMGWSRQAPGKERELVAAINDVGSTYYADSVKGRFTISRDNAKNTVYLQLNSLKAEDTAVYYCAVQAYGRGRSLKMYYWRQGTQVTVSS,high polyreactivity
14,QVQVVESVGGLVQAGGILRLSCAASGRTFRGNAMGWYRQAPGKERELVAAISSSGARTYYADSVKGRFTISRDNAKNTVYLQMNSLKPEDTAVYYCAAVYTDGALQGYDYWGQGTQVTVSS,low polyreactivity
15,QVRLVESGGGLDQAGGSLRLSSAASGRIFNRNAMGWYRQAPGKARELVAAINRGGSTNYADSVKGRFTISRDNAKNTVYLQLNRLKPEDTAVYYCAAELLYATLWRRYSGYYYWGQGTQVTVSS,high polyreactivity
16,QVRLVESGGGLGQAGGSLRLSCAASGPIFDTNAMGWYRQAPGKERELVAAISYIGGGTYYADSVKGRFTISRDNAKNTVYLQMNSLKPEDTAVYYCAAEQIYVFFGDWMEYWGQGTQVTVSS,low polyreactivity
17,QVRLVESGGGLVQAGGSLRLSCAASGRIFQYYSMGWYRQAPGKERELVASITSGGGSTYYADSVKGRFTISRDNAKNTVYLQMNSLKPEDTAVYYCNARWYGLSTRYDYWGQGTQVTVSS,low polyreactivity
18,QVRLVESGGGLVQAGGSLRLSCAASGSIFQYYVMGWYRQAPGKERELVAAISRNGGRTYYADSVKGRFTISRDNAKNTVYLQMNSLKPEDTAVYYCAADSIPHRDNYWGQGTQVTVSS,high polyreactivity
19,QVRLVESGGGLVQAGGSLRLSCAASGSTFPYYDMGWYRQAPGKERELVAAITWSSGSTYYADSVKGRFTISRDNAKNTVYLQMNSLKPEDTAVYYCAAELYSYREDYGAHYAYEYWGQGTQVTVSS,low polyreactivity
20,QVRLVESGGGLVQAGGSLRLSCAASGSTFVYYAMGRYRQAPGNERELVAAITSGDSTYYADSVKGRFTISRDNAKNTVYLQMNSLKPEDTAVYYCAKRISYLPVEMDYWGQGTQVSVSS,low polyreactivity
21,QYQLVESGGGLVQAGGRLRLSCAASGSIFSNYAMGWYRQAPGKERQFVAAISGGGGSTYYADSVKGRFTISRDNANNTVYLQMNSLKPEDTAVYYCARVRYYGALKLYAYDHWGQGTQVTVSS,high polyreactivity
22,RVQLPESGGGLVQAGGSLRLTCAASGTIFIRGDMGWYRQSPGKEREFVATIDTGSNTYYADSEKGRFTISRDNAKNAVYLQMNCLKPGDTAVYYCVVDYQLSGRLRYWGQGTQVTLSS,low polyreactivity
23,RVQLQESGGGLVQAGGSLRLSCAASGTIFIRGDMGWYRQAPGKEREFVATIDTGSNTYNADSEKGRFTISRDNAKNAVYLQMNCLKPGDTAVYYCVVDYQLSGRLRYWGQGTQVTLSS,low polyreactivity
24,RVQLVESAGGLLQAGGSLRLSCAASGRTFTLYAMGWDRQAPGKDRELVAAIRWSGSSTYYADSVKGRFTISRDYAKHTVYLQINSLKPEATAVYYCAARAGRYERYGYWGQGTQVTVSS,high polyreactivity
25,RVQLVESGGGLVQAGGSLRLSCAASGLIFYYNAMVWYRQAPGKERELVAAISTGGSTNYADSVKGRFTISRYNAKNTVYLQMNSLKPEDTAVYYCAAGTRKPYGYKMYYWGQGTQVTVSS,high polyreactivity
26,RVQLVESGGGLVQAGGSLRLSCAASGSISQGNAMGWYRQAPGKERELVADIRWTSGRTYYADSVKGRFTISRDNAKNTVYLQMNSLKPEDTAVYYCAAYYVYYTPTLIDRDYWGQGNQVTVSS,low polyreactivity
27,VQLVESGGGLVQAGGSLRLSCAASGRIFSNNAMGWYRQAPGKEREFVAAITTSAGRTYYADSVKGRFTISRDNAKNTVYLQMNSLKPEDTAVYYCAAEPRQYWEYNYWGQGTQVTVSS,high polyreactivity
